The text below walks through data of article PMC7712654.

For the test, the target named is α-CT coiled-coil domain fused with HIS tag (α-CT-His), fluorescently labeled (Arabidopsis thaliana). In words: MST. The note with it: domain or fragment.
Sequence of α-CT coiled-coil domain fused with HIS tag (α-CT-His), fluorescently labeled (Arabidopsis thaliana) (Q9LD43 420-769): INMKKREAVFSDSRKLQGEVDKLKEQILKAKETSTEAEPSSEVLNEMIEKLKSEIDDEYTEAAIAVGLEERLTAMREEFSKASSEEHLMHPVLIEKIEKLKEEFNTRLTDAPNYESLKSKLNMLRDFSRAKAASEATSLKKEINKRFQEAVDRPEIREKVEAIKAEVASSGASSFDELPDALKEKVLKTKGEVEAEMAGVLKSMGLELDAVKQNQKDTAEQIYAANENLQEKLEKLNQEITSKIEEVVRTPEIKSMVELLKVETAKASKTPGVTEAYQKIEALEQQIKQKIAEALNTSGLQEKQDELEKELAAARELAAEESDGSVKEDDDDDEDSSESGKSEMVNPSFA

As a reminder, the Kd is the constant that tells how readily two partners part at equilibrium. Read a low Kd as tighter binding. For “coiled-coil domain of CTI2, GST tag removed by thrombin”, the Kd was found to be 1.4 µM.
